# Patent US20230272056A1 (Merck Sharp & Dohme, published 2023)
# Changes are numbered by the printed parent chain. Names and notes keep the numbering of the source.
# B1: 56BJN (Fab, V domains shown)
# VH: EVQLVQSGAEVKKPGASVKVSCKASGYTFTSYDIHWVRQAPGQGLEWMGRIDPYSGGIKYAQKFQGRATLTVDTSTSTAYMELSRLRSDDTAVYYCARWDYGGYFDVWGQGTLVTVSS
# VL: DIQMTQSPSSLSASVGDRVTITCRASQDITNYLNWYQQKPGKAVKLLIYYTSRLHSGVPSRFSGSGSGTDYTLTISSLQPEDFATYFCQQGDTLPWTFGQGTKLEIKR
# notes: also called VH W33D M34I Q54Y / VL (56BJN)
# B2: 55BJN (Fab, V domains shown)
# VH: B1 VH with Y54Q
# VL: B1 VL
# notes: also called VH W33D M34I / VL (55BJN)
# B3: parental 20E6 humanized antibody (antibody, IgG1, V domains shown)
# VH: B1 VH with D33W, I34M, Y54Q
# VL: DIQMTQSPSSLSASVGDRVTITCRASQDITNYLNWYQQKPGKAVKLLIYYTSRLHSGVPSRFSGSGSGTDYTLTISSLQPEDFATYFCQQGDTLPWTFGQGTKLEIK
# B4: 10BLM (antibody, human IgG1, kappa, L234A L235A, V domains shown)
# VH: B1 VH with I34M, Y54Q, I58T
# VL: B1 VL with T30Y, R53V, H55E, S56T
# B5: 09BLM (antibody, human IgG1, kappa, L234A L235A, V domains shown)
# VH: B1 VH with I34M, Y54I
# VL: B1 VL with T30F, R53H, H55E, S56T
# B6: 13BLM (antibody, human IgG1, kappa, L234A L235A, V domains shown)
# VH: B1 VH with I34M, Y54Q, S55T, G57D, Y104Q
# VL: B1 VL with T30Y, R53G, H55E, S56T
# B7: 17BLM (antibody, human IgG1, kappa, L234A L235A, V domains shown)
# VH: B1 VH with I34M, Y54Q
# VL: B1 VL with T30Y, H55E, S56T, T93E
# B8: 08BLM (antibody, human IgG1, kappa, L234A L235A, V domains shown)
# VH: B1 VH with I34M, Y54Q, I58T, Y104Q
# VL: B1 VL with T30Y, R53G, H55E, S56T
# B9: 06BLM (antibody, human IgG1, L234A L235A, V domains shown)
# VH: B1 VH with I34M, Y54Q, K59R, Y104Q
# VL: B3 VL with T30Y, R53I, H55E, S56T
# notes: IgG1 L234A L235A D265S/kappa; also called 69BLH; 42BMD
# B10: 20BLM (antibody, human IgG1, kappa, L234A L235A, V domains shown)
# VH: B1 VH with I34M, Y54Q, I58E, W99Y
# VL: B1 VL with T30Y, H55E, S56T
# B11: 14BLM (antibody, human IgG1, kappa, L234A L235A, V domains shown)
# VH: B1 VH with I34T, Y54Q
# VL: B1 VL with T30Y, R53Y, H55E, S56T
# B12: VL R53I (34BIT) (Fab, V domains shown)
# VH: B1 VH with D33W, I34M, Y54Q
# VL: B1 VL with R53I
# notes: Heavy chain: parental 20E6 Fab HC, implied; also called VL R531 (34BIT)
# B13: VL L94D (32BIT) (Fab, V domains shown)
# VH: B1 VH with D33W, I34M, Y54Q
# VL: B1 VL with L94D
# notes: Heavy chain: parental 20E6 Fab HC, implied
# B14: VH S55E (26BIT) (Fab, V domains shown)
# VH: B1 VH with D33W, I34M, Y54Q, S55E
# VL: B1 VL
# notes: Light chain: parental 20E6 LC, implied
# B15: VH S31K (24BIT) (Fab, V domains shown)
# VH: B1 VH with S31K, D33W, I34M, Y54Q
# VL: B1 VL
# notes: as for B14
# B16: VL L94Q (33BIT) (Fab, V domains shown)
# VH: B1 VH with D33W, I34M, Y54Q
# VL: B1 VL with L94Q
# notes: as for B13
# B17: VL T30E (36BIT) (Fab, V domains shown)
# VH: B1 VH with D33W, I34M, Y54Q
# VL: B1 VL with T30E
# notes: as for B13
# B18: VL R53D (35BIT) (Fab, V domains shown)
# VH: B1 VH with D33W, I34M, Y54Q
# VL: B1 VL with R53D
# notes: as for B13
# B19: VL R53E (31BIT) (Fab, V domains shown)
# VH: B1 VH with D33W, I34M, Y54Q
# VL: B1 VL with R53E
# notes: as for B13
# B20: VH K59Q (28BIT) (Fab, V domains shown)
# VH: B1 VH with D33W, I34M, Y54Q, K59Q
# VL: B1 VL
# notes: as for B14
# B21: VL T30D (37BIT) (Fab, V domains shown)
# VH: B1 VH with D33W, I34M, Y54Q
# VL: B1 VL with T30D
# notes: as for B13
# B22: VH K59W (61BIT) (Fab, V domains shown)
# VH: B1 VH with D33W, I34M, Y54Q, K59W
# VL: B1 VL
# notes: as for B14
# B23: VH S31R (25BIT) (Fab, V domains shown)
# VH: B1 VH with S31R, D33W, I34M, Y54Q
# VL: B1 VL
# notes: as for B14
# B24: VH H35R (62BIT) (Fab, V domains shown)
# VH: B1 VH with D33W, I34M, H35R, Y54Q
# VL: B1 VL
# notes: as for B14
# Molecular target: T1, human LAP-TGFB2 Fc fusion (human)
# T1 construct: also called human LAP-TGFβ2; LAP-TGFβ isoform 2
# T1 sequence (chain, as listed by the source limits assumed): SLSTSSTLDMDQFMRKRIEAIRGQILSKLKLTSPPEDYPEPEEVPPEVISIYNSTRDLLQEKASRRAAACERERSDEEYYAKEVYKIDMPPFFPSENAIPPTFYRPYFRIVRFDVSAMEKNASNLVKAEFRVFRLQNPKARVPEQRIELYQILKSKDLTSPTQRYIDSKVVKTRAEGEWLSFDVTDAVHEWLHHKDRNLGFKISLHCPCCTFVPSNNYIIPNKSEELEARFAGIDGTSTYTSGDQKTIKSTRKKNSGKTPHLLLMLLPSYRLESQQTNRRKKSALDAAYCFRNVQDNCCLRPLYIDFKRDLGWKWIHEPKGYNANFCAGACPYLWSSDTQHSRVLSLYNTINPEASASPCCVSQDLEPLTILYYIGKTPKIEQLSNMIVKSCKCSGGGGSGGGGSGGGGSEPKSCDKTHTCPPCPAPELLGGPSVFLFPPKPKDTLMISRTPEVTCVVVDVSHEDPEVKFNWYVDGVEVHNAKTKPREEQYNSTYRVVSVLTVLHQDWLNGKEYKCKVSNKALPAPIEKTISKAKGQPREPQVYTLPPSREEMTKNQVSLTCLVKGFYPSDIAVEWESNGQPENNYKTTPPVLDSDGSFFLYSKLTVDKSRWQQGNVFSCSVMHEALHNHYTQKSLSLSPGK
# Test: SPR
# Source text: (§1) This Example describes the isoform specificity of the yeast display mutants to bind to human LAP-TGFβ isoforms 1, 2, and 3 using surface plasmon resonance. A Series S CM4 sensor chip (GE Healthcare, catalog BR100534) was immobilized with an anti-human Fc capture antibody following the kit protocol (GE Healthcare, catalog BR100839) on a Biacore T200 instrument with 1× HBS-EP+ (Teknova, catalog H8022). […] Binding specificity experiments between human LAP-TGFβ isoforms 2 and 3 and yeast display mutants were performed in 1× HBS-EP+ with 0.1 mg/mL BSA at 25° C. Approximately 20-40 RU amounts of human LAP-TGFβ2 and 3 were captured to the anti-human Fc surface followed by injection of 1000 nM Fab including a negative control 0 nM Fab. The binding data were double referenced by subtraction of signal from a reference (capture surface only) flow cell and the negative control 0 nM Fab injection. Binding rate constants were determined by fitting the data with a 1:1 binding model (GE Healthcare Biacore T200 Evaluation software 3.0).
row,binding result,Binder
1,no binding (tested: 1000 nM Fab),B1
2,no binding (tested: 1000 nM Fab),B2

# Molecular target: T2, human LAP-TGFB3 Fc fusion (human)
# T2 construct: also called human LAP-TGFβ3; LAP-TGFβ isoform 3
# T2 sequence (chain, as listed by the source limits assumed): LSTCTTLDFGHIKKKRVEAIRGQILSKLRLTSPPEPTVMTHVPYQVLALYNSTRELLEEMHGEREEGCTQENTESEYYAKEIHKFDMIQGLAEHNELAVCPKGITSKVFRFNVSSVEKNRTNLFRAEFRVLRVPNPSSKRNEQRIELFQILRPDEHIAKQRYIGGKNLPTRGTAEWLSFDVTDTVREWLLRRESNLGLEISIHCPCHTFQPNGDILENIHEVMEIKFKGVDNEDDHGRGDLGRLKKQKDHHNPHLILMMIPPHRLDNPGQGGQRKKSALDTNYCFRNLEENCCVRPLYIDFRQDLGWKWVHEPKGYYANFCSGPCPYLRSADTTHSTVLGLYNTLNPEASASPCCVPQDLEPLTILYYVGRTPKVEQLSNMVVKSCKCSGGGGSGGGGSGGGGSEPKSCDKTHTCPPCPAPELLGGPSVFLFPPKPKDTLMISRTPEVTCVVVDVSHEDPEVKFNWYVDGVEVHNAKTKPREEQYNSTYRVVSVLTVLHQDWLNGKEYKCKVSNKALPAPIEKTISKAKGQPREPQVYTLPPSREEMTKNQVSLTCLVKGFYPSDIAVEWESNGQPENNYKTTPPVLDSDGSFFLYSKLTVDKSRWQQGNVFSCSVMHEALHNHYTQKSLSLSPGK
# Test: SPR
# Source text: as §1
row,binding result,Binder
1,no binding (tested: 1000 nM Fab),B1
2,no binding (tested: 1000 nM Fab),B2

# Molecular target: T3, human LAP-TGFB1 Fc fusion (human)
# T3 construct: also called human LAP-TGFβ1-Fc; human LAP-TGFβ-Fc isoform 1
# T3 sequence (chain, as listed by the source limits assumed): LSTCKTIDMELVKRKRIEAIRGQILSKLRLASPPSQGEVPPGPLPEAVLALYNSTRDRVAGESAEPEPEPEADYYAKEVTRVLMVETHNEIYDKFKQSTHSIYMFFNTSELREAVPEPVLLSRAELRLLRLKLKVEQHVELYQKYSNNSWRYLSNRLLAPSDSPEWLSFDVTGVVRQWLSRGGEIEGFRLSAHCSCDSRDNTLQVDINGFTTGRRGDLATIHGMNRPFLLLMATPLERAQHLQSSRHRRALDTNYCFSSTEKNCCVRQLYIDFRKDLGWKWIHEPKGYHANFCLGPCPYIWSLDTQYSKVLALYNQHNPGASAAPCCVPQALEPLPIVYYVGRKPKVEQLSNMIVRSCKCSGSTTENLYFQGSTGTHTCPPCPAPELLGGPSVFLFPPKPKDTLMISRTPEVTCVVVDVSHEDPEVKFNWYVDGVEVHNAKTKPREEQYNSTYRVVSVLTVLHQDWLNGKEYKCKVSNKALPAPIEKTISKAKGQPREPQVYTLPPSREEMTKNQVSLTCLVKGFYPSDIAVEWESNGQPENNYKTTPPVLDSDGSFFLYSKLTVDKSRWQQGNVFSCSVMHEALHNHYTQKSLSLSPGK
# Test: SPR, antigen-Fc captured, Fab analyte
# Source text: as §1
row,Fold improvement in KD,Binder
1,1 fold,B1
2,3 fold,B2

# Molecular target: human LAP-TGFβ1 expressed on P3U1 cells (human, UniProt P01137 30-390)
# Sequence (P01137 30-390): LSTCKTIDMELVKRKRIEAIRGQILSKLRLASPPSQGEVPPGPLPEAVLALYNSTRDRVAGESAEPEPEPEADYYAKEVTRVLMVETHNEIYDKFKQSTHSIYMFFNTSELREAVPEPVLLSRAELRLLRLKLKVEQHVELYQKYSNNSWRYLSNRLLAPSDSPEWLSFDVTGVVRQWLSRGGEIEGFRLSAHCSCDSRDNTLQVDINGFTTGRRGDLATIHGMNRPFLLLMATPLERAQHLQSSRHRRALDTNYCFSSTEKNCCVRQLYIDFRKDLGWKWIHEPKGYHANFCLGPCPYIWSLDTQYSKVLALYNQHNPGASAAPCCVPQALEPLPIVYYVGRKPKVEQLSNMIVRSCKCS
# Test: cell-based or functional assay
Average EC50,ELISA assay 2 EC50,ELISA assay #1 EC50,Binder
5.64 µg/mL,8.9 µg/mL,2.38 µg/mL,B3
0.083 µg/mL,0.134 µg/mL,0.0332 µg/mL,B4
0.08 µg/mL,0.13 µg/mL,0.0295 µg/mL,B5
0.092 µg/mL,0.105 µg/mL,0.0785 µg/mL,B6
0.063 µg/mL,0.089 µg/mL,0.0357 µg/mL,B7
0.076 µg/mL,0.098 µg/mL,0.0539 µg/mL,B8
0.125 µg/mL,0.137 µg/mL,0.113 µg/mL,B9
0.033 µg/mL,0.008 µg/mL,0.0574 µg/mL,B10
0.158 µg/mL,0.146 µg/mL,0.169 µg/mL,B11

# Molecular target: T3, human LAP-TGFB1 Fc fusion
# Test: BLI off-rate screen
# Procedure: The Fab mutants including a positive control, 20E6 Fab, and a negative control Fab (Molecular Innovations, catalog HU-FAB-4510) were diluted to 200 nM in assay buffer and loaded to FAB2G sensors for 180 seconds followed by a one-hour incubation at room temperature in assay buffer to equilibrate the tips. The Fab loaded sensors were assessed for binding with 100 nM human LAP-TGFβ for 180 seconds followed by a 180 second dissociation phase in assay buffer on a ForteBio HTX (software version 9.0.0.66). Non-specific binding to the negative control Fab was subtracted and the binding sensorgrams were aligned to the start of the association phase on the X and Y axis. The Fab binding was fit with the 1:1 binding model, dissociation phase only, with local fitting using ForteBio Data Analysis 9.0 software.
Binding response,Fold change,koff,binding result,Binder
0.757 nm,1.7 fold,0.0246 s⁻¹,,B12
0.195 nm,0.7 fold,0.0618 s⁻¹,,B13
0.489 nm,0.8 fold,0.0519 s⁻¹,,B14
0.625 nm,1.1 fold,0.037 s⁻¹,,B15
0.341 nm,0.7 fold,0.0583 s⁻¹,,B16
0.439 nm,1 fold,0.0405 s⁻¹,,B17
0.398 nm,1.2 fold,0.0341 s⁻¹,,B18
0.664 nm,1.5 fold,0.0286 s⁻¹,,B19
0.165 nm,0.7 fold,0.0596 s⁻¹,,B20
0.182 nm,1.1 fold,0.0402 s⁻¹,,B21
0.035 nm,,,no binding (tested: 100 nM antigen),B22
0.069 nm,1 fold,0.0437 s⁻¹,,B23
0.021 nm,,,no binding (tested: 100 nM antigen),B24

# Molecular target: T3, human LAP-TGFB1 Fc fusion
# Test: SPR pH 6.0, antigen captured on Fab 54BLH
# Source text: A Series S C1 sensor chip (Cytiva, catalog BR100535) was immobilized with low densities of high affinity Fab 54BLH on a Biacore T200 instrument with 1×HBS-EP+(Teknova, catalog H8022). This surface served as a monovalent capture surface for a low-density layer of heterodimer human LAP-TGFβ1 complex leaving the second binding site exposed for monovalent kinetic binding analysis with both mAbs and Fabs. Immobilized flow cell 1 served as the reference and flow cells 2, 3 and 4 were used to evaluate the binding interaction between human LAP-TGFβ1 and yeast display mutant mAbs and Fabs.
# Approximately 15-25 RU of human LAP-TGFβ1-Fc was captured to the Fab capture surface followed by injection of 1:3 serially diluted Fabs and mAbs from 6 nM to 0.07 nM (Fabs: 54BLH, 55BLH, 60BLH, 63BLH, 64BLH-mAbs: 69BLH, 70BLH) and 1:3 serially diluted Fab and mAbs from 60 nM to 0.74 nM (Fabs: 59BLH, 66BLH, 67BLH—mAbs: 74BLH, 75BLH, 78BLH, 79BLH, 81BLH, 82BLH) including 0 nM. The binding data was double referenced by subtraction of signal from a reference flow cell and the 0 nM injections for evaluation of Fabs and mAbs respectively. Binding rate constants were calculated/determined by fitting the data with a 1:1 binding model (Cytiva Biacore T200 Evaluation software 3.0).
Fab/mAb KD Ratio,Kd,koff,kon,Binder
1.9,0.0114 nM,6.18e-05 s⁻¹,5.43e+06 M⁻¹ s⁻¹,B9
